Here are results for 167 variants from the RNAGym collection of RNA variant scans (doi:10.1093/nar/gkz1192).

The chains are these.
B1: CPEB3 Ribozyme (parent)
chain: UAACAGGGGGCCACAGCAGAAGCGUUCACGUCGCAGCCCCUGUCAGAUUCUGGUGAAUCUGCGAAUUCUGCUGUAUAUCUC

The data set covers variants of B1. The data set is described as follows: self-cleavage, relative activity (ratio to wild type); higher = more cleavage; in vitro, sequencing. The procedure, abridged:
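Libraries of CPEB3 self-cleaving ribozyme mutants came from rounds of error-prone PCR and carried barcodes, which DNA sequencing matched to variants. In vitro transcription used T7 RNA polymerase at 37°C for 5 hours, with a further 15 min in DNase I before EDTA stopped the reaction; the ribozymes cleaved during both steps. The RNA was reverse transcribed with template switching and sequenced on Illumina. Relative activity is the cleaved/total read fraction of a variant divided by that of the unmutated ribozyme, averaged over three batches with at least 5 reads.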
Take A3U U69A: the self-cleavage was found to be 0.54.
To A3U U69C belongs 0.69; to C4G U51A, 1.15; to C4A U26C, 1.21.
To A3G A64U belongs 0.45; to A3G A65U, 0.25.
For A3G A65G the value was 0.55.
Regarding A3U U41C, the self-cleavage was 1.05.
As to A3U U41A, the self-cleavage was 0.31.
To A3G C79U belongs 1.
For A3G C79A the value was 1.05; for C4A U25C, 0.52; for A3G G19U, 0.41.
To A3U A75G belongs 1.06; to A3G G33A, 0.38; to A3G G33C, 0.31.
A3G G33U: the self-cleavage is 0.11.
To A3U C59A belongs 0.51; to A3U C59U, 0.66; to A3U U49A, 0.47.
With A3U U49C, the self-cleavage came out at 0.51.
For A3G U49A the value was 0.69; for A3G U49C, 0.49; for A3G C12U, 1.22.
To A3G C12A belongs 1.16.
To A3G G16C belongs 0.47; to A3G G16A, 0.38; to A3G G16U, 0.62.
Consider A3G U67C, for which the self-cleavage was found to be 0.33.
To A3G U67A belongs 0.52; to A3G U67G, 0.37; to A3U A65G, 0.54.
To A3U A65U belongs 0.14; to C4G G55U, 1.12.
To C4A U41A belongs 0.41.
Regarding A3U G42U, the self-cleavage stood at 0.16.
To C4A U31A belongs 0.88.
Take A3U U58A: the self-cleavage was 0.39.
For A3U U58C, the self-cleavage was 0.54.
To A3G G46C belongs 0.39.
To A3G G46A belongs 0.13; to C4G U41C, 1.1; to C4G U41A, 0.5.
To A3G U41C belongs 0.98.
For the variant A3G U41G, the self-cleavage is 0.17.
A3G U41A: the self-cleavage is 0.3.
For A3U C29U the value was 0.71; for C4A C62U, 0.23.
For A3G G36A the value was 0.2.
To A3G G36U belongs 0.26; to A3U A45U, 0.73.
Take A3U A45G: the self-cleavage came out at 1.03.
To A3U U60C belongs 0.59; to A3U U60A, 0.19.
For the variant A3U A5G, the self-cleavage was 0.79.
For A3U A5U, the self-cleavage is 1.18.
To A3U G9C belongs 0.25; to A3U G9A, 0.58.
To A3G G55U belongs 1.12; to A3U G22A, 0.45; to A3U G22U, 0.32.
To C4A A21G belongs 0.92; to C4A U74C, 1.22; to C4A C59A, 0.33.
As for C4G U49A, the self-cleavage worked out at 0.65.
Take A3G C14A: the self-cleavage is 1.13.
For A3G C14U the value was 1.12.
A3G C11U: the self-cleavage came out at 0.51.
To A3G C11A belongs 0.32; to A3G C11G, 0.54.
For A3U U51A the value was 1.02; for A3U U51C, 1.15; for A3U U51G, 1.08.
To C4A A47G belongs 1.12; to A3U A13U, 1.16; to A3U A13C, 0.96.
On to A3U A13G, for which the self-cleavage is 0.89.
For A3U A47C the value was 0.69; for A3U A47U, 0.71; for A3U A47G, 1.17.
For A3U G46A the value was 0.54; for C4A U72C, 1.22; for C4A U72A, 0.42.
For C4G A57G the value was 0.98; for A3G U25G, 0.45.
On to A3G U25C, for which the self-cleavage turned out to be 0.42.
For A3G U25A the value was 0.63; for A3U C34U, 0.51; for A3U, 1.06.
To C4A G22C belongs 0.25.
As to A3G C71U, the self-cleavage was determined as 0.64.
For A3G C71A the value was 0.27; for A3G C71G, 0.57.
To A3G G9U belongs 0.34; to A3G G9C, 0.6; to A3G G9A, 0.53.
To A3U G6A belongs 0.62; to A3U G6U, 0.59.
Turning to A3U G16A, the self-cleavage was determined as 0.43.
To A3U C81G belongs 1.21; to C4A A20G, 1.11; to A3U C68A, 0.44.
To A3U C68G belongs 0.44; to A3G C37A, 0.36; to A3G C37U, 0.85.
Turning to A3G U48G, the self-cleavage was found to be 0.54.
As for A3G U48A, the self-cleavage was found to be 0.37.
For A3G U48C the value was 0.61; for A3U U54A, 1.19; for A3U U54C, 1.04.
To A3G C39A belongs 0.05; to A3G C39G, 0.34.
For the variant A3G C39U, the self-cleavage came out at 0.64.
To C4A U60A belongs 0.89; to A3U C11G, 0.4.
For A3G G6U the value was 0.57; for A3G G6A, 0.59.
Take A3G G6C: the self-cleavage was 0.77.
For A3U G61A the value was 1.01; for A3U G61C, 0.5; for C4A G10A, 0.59.
Regarding C4A G16U, the self-cleavage came to 0.62.
For A3G U26C the value was 0.65; for A3G U26A, 0.9; for A3G A77G, 1.03.
For A3G A77C the value was 1.03; for A3G A77U, 0.99; for A3U A56G, 0.63.
To A3U A21U belongs 0.56; to A3U A21G, 0.79.
Take C4G A21G: the self-cleavage worked out at 1.14.
As to A3G U74C, the self-cleavage worked out at 1.16.
To A3G U74A belongs 1.22; to A3G U74G, 1.24.
To C4A G30A belongs 0.39; to C4A U78C, 0.74; to C4A G33U, 0.12.
Regarding C4A U66C, the self-cleavage was found to be 0.24.
For A3U G33A the value was 0.16.
For A3U G33U the value was 0.42; for A3G U80G, 1.12.
To A3G U80C belongs 1.07.
As to A3G U80A, the self-cleavage was 1.11.
On to A3G C81G, for which the self-cleavage was 1.17.
On to A3G G22A, for which the self-cleavage was determined as 0.29.
For A3G G22U the value was 0.15.
To C4A C79G belongs 1.25; to C4A U80C, 1.11.
For C4A U80A the value was 1.06; for A3U C12A, 1.14.
With A3G U43C, the self-cleavage was found to be 0.49.
To A3G U43A belongs 0.99; to A3U C27U, 0.6; to C4A U76A, 1.2.
To A3G C62U belongs 0.39; to A3G C62G, 0.32; to A3G C62A, 0.59.
For C4A G9A the value was 0.64.
Turning to A3G C44A, the self-cleavage was determined as 0.42.
As for A3U U67C, the self-cleavage is 0.3.
Regarding A3U U67A, the self-cleavage was determined as 0.75.
For A3G U54A the value was 0.98; for A3G U54G, 0.82; for A3G U54C, 0.98.
With A3U C40A, the self-cleavage amounted to 0.54.
To A3G U76A belongs 1.23; to A3G U76C, 1.15.
